According to patent US7531500B2, “Preventing airway mucus production by administration of EGF-R antagonists” (The Regents of the University of California, priority 1998, dated 2009):

B1: IL-13: recombinant murine IL-13 in rats; recombinant human IL-13 in chemotaxis (R&D systems) (protein, UniProt P20109 19-131, looked up)
Interleukin-13: APGPVPRSVSLPLTLKELIEELSNITQDQTPLCNGSMVWSVDLAAGGFCVALDSLTNISNCNAIYRTQRILHGLCNRKAPTTVSSLPDTKIEVAHFITKLLSYTKQLFRHGPF

How the values were obtained:
[1] = test system: rat nasal septal epithelium; assay: fMLP-induced degranulation and regranulation of goblet cells in rat nasal epithelium; format: in vivo
Method: Nasal Tissue Preparation. At various times after inhalation, rats were anesthetized with pentobarbital sodium (65 mg/kg, i.p.). The heart of the animal was exposed, a blunt-ended needle was inserted from the apex of the left ventricle into the ascending aorta, and the systemic circulation was perfused with 1% paraformaldehyde. An incision in the right atrium provided an outlet for the fixative. The eyes, lower jaws, skin, and musculature were removed, and the head was immersed in a large volume of the same fixative for 24 h. […]
Counting of Neutrophils in Nasal Epithelium. Neutrophils were counted in high power fields of the epithelial layer stained with 3,3′-diaminobenzidine at magnification ×400. The number of neutrophils within the nasal sepal epithelium (from the basement membrane to cell apices) was determined by counting the number of nuclear profiles per unit of basal lamina length.
Quantification of Goblet Cell Degranulation and Regranulation. To assess goblet cell degranulation and regranulation, we measured the volume density of Alcian blue/PAS-stained mucosubstances on the mucosal surface epithelium using a semiautomatic imaging system according to a previously published method. […] Images of the nasal epithelium were recorded in high power fields with a phase contrast lens at x400, using an IMAXX Video System (PDI, Redmond, Wash.). […]

[2] = test system: NCI-H292 cells; assay: Immunoassay of MUC5AC protein in NCI-H292 cells (Example 2); format: cell-based, human; conditions: 1 h incubation, protein at 24 h; IL-8 10^-8 M, fMLP 10^-8 M, TNFα 20 ng/ml
[3] = test system: human neutrophils; assay: Chemotaxis of human neutrophils (microchemotaxis chamber); format: cell-based; conditions: 10^-10, 10^-9, 5×10^-9 M
Method: Human neutrophils were purified from peripheral blood obtained from healthy donors. Neutrophil isolation was performed by standard techniques of Ficoll-Hypaque gradient separation, dextran sedimentation, and hypotonic lysis of erythrocytes. Cells were routinely >95% viable by trypan blue dye exclusion. To prevent endotoxin contamination, all solutions were passed through a […]. Chemotactic activity was assessed in 48-well microchemotaxis chamber (Neuroprobe, Cabin John, Md.), utilizing the leading front technique. Migration was measured as net movement of neutrophils ([…]) through a nitrocellulose filter (pore size, 3 μm) after 25 min at 37° C. The effect of IL-13 (10^−10, 10^−9, and 5×10^−9 M; recombinant human IL-13, R&D systems, Minneapolis, Minn.) is expressed as the distance traveled, compared to the random migration of neutrophils incubated with RPMI 1640.

[4] = test system: pathogen-free rats; assay: IL-13-induced goblet cell metaplasia in rat airways; format: in vivo
Method: Animals were anesthetized with pentobarbital [Nembutal sodium, 50 mg/kg, intraperitoneally (ip), Abbott Laboratories, North Chicago, Ill.] and allowed to breathe spontaneously. Vehicle (phosphate buffer solution, PBS) or IL-13 was instilled intratracheally via a 20-gauge Angiocath catheter (Beckton Dickinson, Sandy, Utah) through the mouth, while the laryngeal area was visualized using a high-intensity illuminator (FiberLite; Dolan Jenner Industries, Inc., Lawrence, Mass.). The […] tissues were examined 48 hours after instillation of IL-13. Various concentrations of IL-13 (recombinant murine IL-13; 5, 50, 100, and 500 ng/rat, R&D systems, Minneapolis, Minn.) were instilled into the trachea in […]. Sterile PBS (200 μl) was instilled into the trachea as controls. For examination of the relationship between IL-13-induced GC metaplasia and activation of EGFR, animals were pretreated 1 d before instillation of IL-13 and daily thereafter with a selective EGFR tyrosine kinase inhibitor (BIBX 1522; 1-30 mg/kg/day, ip; Boehringer Ingelheim, Ingelheim, Germany). Animals were euthanized 48 hours after instillation of IL-13. In preliminary studies, we noted that IL-13 causes leukocyte recruitment into the airways. We hypothesized that leukocyte recruitment results from IL-13-induced chemoattractant release from epithelium, and that this recruitment is involved in the IL-13-induced EGFR cascade leading to GC metaplasia. Groups of animals were euthanized 4, 8, 16, 24, and 48 hours after instillation of IL-13 (500 ng), and leukocytes were counted in airway tissue. […] Sigma chemical Co., St Louis, Mo.] or with a blocking antibody to interleukin-8 (IL-BAb; rabbit anti-human IL-8 antibody; Biosource, Camarillo, Calif.). […] In another series of studies, we instilled IL-8 Ab (10 μg/rat) intratracheally, along with IL-13; we repeated the instillation of anti-human IL-8 blocking antibody at 12 hour intervals until the animals were euthanized. Animals were euthanized with a lethal dose of pentobarbital (Nembutal sodium, 200 mg/kg, ip, Abbott Laboratories, North Chicago, Ill.), and the systemic circulation was perfused with 1% paraformaldehyde in Diethylpyrocarbonate (DEPC, Sigma chemical Co., St Louis, Mo.)-treated PBS via the left ventricle. For frozen sections, […] tissues were removed, placed in 4% paraformaldehyde overnight, and then placed in 30% sucrose for cryoprotection. The tissues were embedded in optimal cutting temperature (OCT, […]., Inc., Torrance, Calif.) compound. For plastic or paraffin sections, tissues were placed in 4% paraformaldehyde overnight, dehydrated with ethanol, and embedded in JB-4 plus monomer solution A (Polysclences, Inc., Warrington, Pa.) or in paraffin. The embedded tissues were cut as cross sections 4 μm thick and placed on glass slides. In all studies, the carina was examined to obtain consistent sampling. We measured AB/PAS-positive areas and total epithelial area, and we expressed the results as the percentage of AB/PAS area to total epithelial area. The analysis was performed with the public domain NIH IMAGE program (developed at the U.S. National Institutes of Health and available by anonymous FTP from zippy.nimh.gov. or floppy disk from the National Technical Information Service, Springfield, Va., part number PB95-500195GEI). […] For immunohistochemical localization of […], we used mouse anti-human IL-8 antibody (1:20; Biosource, Camarillo, Calif.). The sections were then incubated with biotinylated horse anti-mouse IgG (Vector Laboratories, Burlingame, Calif.) at 1:200 dilution for 1 hour at room temperature. Bound antibody was visualized according to standard protocols for avidin-biotin-peroxidase complex method. The measurement of MUC5AC protein also utilized the same method used for quantitative measurement of GC metaplasia in the epithelium. Animals were euthanized 4, 8, 16, 24, and 48 hours after instillation of IL-13 (500 ng), and leukocytes were counted in airway tissue. […]

[5] = IL-13 5, 50, 100, 500 ng/rat intratracheal, 48 hours, dose-dependently

Row | Molecule | area of MUC5AC-positive immunostaining ([1]; 4 h after fMLP aerosol (10^-7 M)) | AB/PAS-stained area of nasal epithelium ([1]; 4 h after fMLP aerosol (10^-7 M) intranasally for 5 min) | MUC5AC synthesis, stimulus alone without neutrophils [2] | neutrophil movement [3] | leukocyte recruitment into airway epithelium ([4]; IL-13 500 ng) | start of leukocyte recruitment ([4]; IL-13 500 ng) | time of maximal leukocyte recruitment ([4]; IL-13 500 ng) [h] | AB/PAS staining in rat airway epithelium [4, 5] | MUC5AC staining in rat airway epithelium [4, 5] | EGFR expression in airway epithelium ([4]; instillation of IL-13) | staining of airway epithelium with anti-human IL-8 antibody (IL-8-like chemoattractant) ([4]; instillation of IL-13) | TNFα expression in rat airway tissue ([4]; instillation of IL-13, mainly in infiltrating neutrophils)
1 | CSCC[C@H](NC=O)C(=O)N[C@@H](CC(C)C)C(=O)N[C@@H](Cc1ccccc1)C(=O)O [fMLP, N-formyl-methionyl-leucyl-phenylalanine] | markedly decreased | markedly decreased | no effect | – | – | – | – | – | – | – | – | –
2 | B1 | – | – | – | decreased neutrophil movement dose-dependently | time-dependent leukocyte recruitment | approximately 8 hours | ≤ 24 | increased | increased | increased | positive staining | induced
